Reference: publication PMC2928650

Molecular target: T1, Ets1 280-441 (UniProt P14921 280-441)
T1 sequence: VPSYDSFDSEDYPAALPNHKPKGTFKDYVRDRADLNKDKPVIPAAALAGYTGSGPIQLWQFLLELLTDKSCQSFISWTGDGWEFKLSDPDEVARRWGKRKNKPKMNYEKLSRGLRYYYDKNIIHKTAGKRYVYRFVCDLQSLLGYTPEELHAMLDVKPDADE
Test: X-ray crystallography

B1: stromelysin-1 EBS palindrome, crystal duplex (dsDNA)
DNA 1: CAGGAAGCACTTCCTG
DNA 2: GCAGGAAGTGCTTCCT
binding result: binds
